Data from US20130195874A1 (ADRENOMED, published 2013).
Like-named read-outs stand apart in the source and are kept apart here.

B1: NT-H (antibody, V domains shown)
VH: QVQLQQSGAELMKPGASVKISCKATGYTFSRYWIEWVKQRPGHGLEWIGEILPGSGSTNYNEKFKGKATITADTSSNTAYMQLSSLTSEDSAVYYCTEGYEYDGFDYWGQGTTLTVSS
VL: DVLLSQTPLSLPVSLGDQATISCRSSQSIVYSNGNTYLEWYLQKPGQSPKLLIYRVSNRFSGVPDRFSGSGSGTDFTLKISRVEAEDLGVYYCFQGSHIPYTFGGGTKLEIK
notes: also called NT-H antibody; antibody NT-H
B2: mouse adrenomedullin (mADM 1-50) (peptide)
peptide: YRQSMNQGSRSNGCRFGTCTFQKLAHQIYQLTDKDKDGMAPRNKISPQGYNH
B3: human adrenomedullin (hADM 1-52) (peptide)
peptide: YRQSMNNFQGLRSFGCRFGTCTVQKLAHQIYQFTDKDKDNVAPRSKISPQGY

Legend:
[1] = molecular target: ADM (human or mouse not stated for this entry); experiment: cell-based or functional assay
[2] = molecular target: B3; experiment: cell-based or functional assay
[3] = molecular target: B3; experiment: SPR (Biacore 2000), antibody captured via anti-mouse Fc, Adrenomedullin in solution
Experimental: Reversible immobilization of the antibodies was performed using an anti-mouse Fc antibody covalently coupled in high density to a CM5 sensor surface according to the manufacturer's instructions (mouse antibody capture kit; GE Healthcare). (Lorenz et al.,” Functional Antibodies Targeting IsaA of Staphylococcus aureus Augment Host Immune Response and Open New Perspectives for Antibacterial Therapy”; Antimicrob Agents Chemother. 2011 January; 55(1): 165-173.)

[4] = molecular target: B3; experiment: cell-based or functional assay
[5] = molecular target: T1, human recombinant adrenomedullin receptor (CRLR+RAMP3) (human); experiment: cell-based or functional assay
T1 chain: B3 peptide

[6] = molecular target: T1, human recombinant adrenomedullin …; experiment: cell-based or functional assay

Non specific mouse IgG (antibody)
Maximal inhibition of ADM bioactivity (ADM-Bioassay) (%) [1]: 0%

B1
IC50 (read off the curve) [2]: ~2 µg/mL | Kd [3]: 5.9 nM | stability of hADM in human citrate plasma with NT-H against hADM alone [4]: 2.3 fold

B2
EC50 (read off the curve) [5]: ~0.08 nM

B3
EC50 (read off the curve) [6]: ~1 nM
